Reference: patent US20260167699A1 (Chugai, published 2026)
Residue numbers refer to the chain shown, from its start.

T1: FcγRIIa(R) extracellular domain with C-terminal His tag (human, UniProt P12318 34-217)
T1 construct: extracellular domain; R131 allotype; also called 2aR; CD32
T1 sequence: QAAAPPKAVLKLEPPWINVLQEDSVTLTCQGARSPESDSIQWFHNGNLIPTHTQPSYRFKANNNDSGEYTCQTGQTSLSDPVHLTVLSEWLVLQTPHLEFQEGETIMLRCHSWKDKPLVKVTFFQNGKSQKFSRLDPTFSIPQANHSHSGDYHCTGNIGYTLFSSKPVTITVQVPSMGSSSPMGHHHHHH

T2: FcγRIIa(H) extracellular domain with C-terminal His tag (human, UniProt P12318 34-217)
T2 construct: extracellular domain; H131 allotype; also called 2aH; CD32
T2 sequence: T1 sequence with R134H

T3: FcγRIIb extracellular domain with C-terminal His tag (human, UniProt P31994 43-217)
T3 construct: extracellular domain; also called 2b; CD32
T3 sequence: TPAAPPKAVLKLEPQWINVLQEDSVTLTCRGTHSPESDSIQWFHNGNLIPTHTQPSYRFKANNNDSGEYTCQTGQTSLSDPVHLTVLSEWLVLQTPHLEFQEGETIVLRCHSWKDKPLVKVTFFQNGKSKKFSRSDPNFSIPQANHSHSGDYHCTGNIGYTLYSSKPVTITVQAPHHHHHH

B1: GpH7-A5/GpH7-B3 variant P331_20W/GpL16-k0 (antibody, human IgG1, kappa)
heavy 1: not shown
heavy 2: not shown
light: DIVMTQSPLSLPVTPGEPASISCQASESLVHSNRNTYLHWYLQKPGQSPQLLIYKVSNRFSGVPDRFSGSGSGTDFTLKISRVEAEDVGVYYCSQNTHVPPTFGQGTKVEIERTVAAPSVFIFPPSDEQLKSGTASVVCLLNNFYPREAKVQWKVDNALQSGNSQESVTEQDSKDSTYSLSSTLTLSKADYEKHKVYACEVTHQGLSSPVTKSFNRGEC
notes: heterodimerized IgG1 (He Ab), mutation in one H chain only; also called He Ab
B2: GpH7-A5/GpH7-B3 variant S337_01G/GpL16-k0 (antibody, human IgG1, kappa)
heavy 1: not shown
heavy 2: not shown
light: B1 light
notes: as for B1
B3: GpH7-A5/GpH7-B3 variant S337_02A/GpL16-k0 (antibody, human IgG1, kappa)
heavy 1: not shown
heavy 2: not shown
light: B1 light
notes: as for B1
B4: GpH7-A5/GpH7-B3 variant S337_03V/GpL16-k0 (antibody, human IgG1, kappa)
heavy 1: not shown
heavy 2: not shown
light: B1 light
notes: as for B1
B5: GpH7-A5/GpH7-B3 variant S337_04F/GpL16-k0 (antibody, human IgG1, kappa)
heavy 1: not shown
heavy 2: not shown
light: B1 light
notes: as for B1
B6: GpH7-A5/GpH7-B3 variant S337_06M/GpL16-k0 (antibody, human IgG1, kappa)
heavy 1: not shown
heavy 2: not shown
light: B1 light
notes: as for B1
B7: GpH7-A5/GpH7-B3 variant S337_09D/GpL16-k0 (antibody, human IgG1, kappa)
heavy 1: not shown
heavy 2: not shown
light: B1 light
notes: as for B1
B8: GpH7-A5/GpH7-B3 variant S337_10E/GpL16-k0 (antibody, human IgG1, kappa)
heavy 1: not shown
heavy 2: not shown
light: B1 light
notes: as for B1
B9: GpH7-A5/GpH7-B3 variant S337_12R/GpL16-k0 (antibody, human IgG1, kappa)
heavy 1: not shown
heavy 2: not shown
light: B1 light
notes: as for B1
B10: GpH7-A5/GpH7-B3 variant S337_18N/GpL16-k0 (antibody, human IgG1, kappa)
heavy 1: not shown
heavy 2: not shown
light: B1 light
notes: as for B1
B11: GpH7-A5/GpH7-B3 variant T335_01G/GpL16-k0 (antibody, human IgG1, kappa)
heavy 1: not shown
heavy 2: not shown
light: B1 light
notes: as for B1
B12: GpH7-A5/GpH7-B3 variant T335_02A/GpL16-k0 (antibody, human IgG1, kappa)
heavy 1: not shown
heavy 2: not shown
light: B1 light
notes: as for B1
B13: GpH7-A5/GpH7-B3 variant T335_03V/GpL16-k0 (antibody, human IgG1, kappa)
heavy 1: not shown
heavy 2: not shown
light: B1 light
notes: as for B1
B14: GpH7-A5/GpH7-B3 variant T335_04F/GpL16-k0 (antibody, human IgG1, kappa)
heavy 1: not shown
heavy 2: not shown
light: B1 light
notes: as for B1
B15: GpH7-A5/GpH7-B3 variant T335_05P/GpL16-k0 (antibody, human IgG1, kappa)
heavy 1: not shown
heavy 2: not shown
light: B1 light
notes: as for B1
B16: GpH7-A5/GpH7-B3 variant T335_06M/GpL16-k0 (antibody, human IgG1, kappa)
heavy 1: not shown
heavy 2: not shown
light: B1 light
notes: as for B1
B17: GpH7-A5/GpH7-B3 variant T335_07I/GpL16-k0 (antibody, human IgG1, kappa)
heavy 1: not shown
heavy 2: not shown
light: B1 light
notes: as for B1
B18: GpH7-A5/GpH7-B3 variant T335_08L/GpL16-k0 (antibody, human IgG1, kappa)
heavy 1: not shown
heavy 2: not shown
light: B1 light
notes: as for B1
B19: GpH7-A5/GpH7-B3 variant T335_09D/GpL16-k0 (antibody, human IgG1, kappa)
heavy 1: not shown
heavy 2: not shown
light: B1 light
notes: as for B1
B20: GpH7-A5/GpH7-B3 variant T335_10E/GpL16-k0 (antibody, human IgG1, kappa)
heavy 1: not shown
heavy 2: not shown
light: B1 light
notes: as for B1
B21: GpH7-A5/GpH7-B3 variant T335_11K/GpL16-k0 (antibody, human IgG1, kappa)
heavy 1: not shown
heavy 2: not shown
light: B1 light
notes: as for B1
B22: GpH7-A5/GpH7-B3 variant T335_12R/GpL16-k0 (antibody, human IgG1, kappa)
heavy 1: not shown
heavy 2: not shown
light: B1 light
notes: as for B1
B23: GpH7-A5/GpH7-B3 variant T335_13S/GpL16-k0 (antibody, human IgG1, kappa)
heavy 1: not shown
heavy 2: not shown
light: B1 light
notes: as for B1
B24: GpH7-A5/GpH7-B3 variant T335_15Y/GpL16-k0 (antibody, human IgG1, kappa)
heavy 1: not shown
heavy 2: not shown
light: B1 light
notes: as for B1
B25: GpH7-A5/GpH7-B3 variant T335_16H/GpL16-k0 (antibody, human IgG1, kappa)
heavy 1: not shown
heavy 2: not shown
light: B1 light
notes: as for B1
B26: GpH7-A5/GpH7-B3 variant T335_18N/GpL16-k0 (antibody, human IgG1, kappa)
heavy 1: not shown
heavy 2: not shown
light: B1 light
notes: as for B1
B27: GpH7-A5/GpH7-B3 variant T335_19Q/GpL16-k0 (antibody, human IgG1, kappa)
heavy 1: not shown
heavy 2: not shown
light: B1 light
notes: as for B1
B28: GpH7-A5/GpH7-B3 variant T335_20W/GpL16-k0 (antibody, human IgG1, kappa)
heavy 1: not shown
heavy 2: not shown
light: B1 light
notes: as for B1

The binders below were run against T4, FcγRIIIa extracellular domain with C-terminal His tag (human, UniProt P08637 17-208) (assay: SPR; % of GpH7-A5/GpH7-B3/GpL16-k0).
T4 construct: extracellular domain; also called 3a; CD16
T4 sequence (P08637 other isoform, or with tags, fused parts or gaps): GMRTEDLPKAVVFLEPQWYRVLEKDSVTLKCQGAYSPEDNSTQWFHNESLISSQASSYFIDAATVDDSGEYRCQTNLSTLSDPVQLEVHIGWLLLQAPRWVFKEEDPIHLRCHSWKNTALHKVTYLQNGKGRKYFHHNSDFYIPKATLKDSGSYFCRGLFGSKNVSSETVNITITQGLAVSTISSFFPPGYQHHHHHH

Binder	He/Con 3a
B1	71.9%
B2	95.2%
B3	92.4%
B4	87.1%
B5	94.4%
B6	89.7%
B7	102%
B8	97.8%
B9	92.7%
B10	96.9%
B11	95.1%
B12	90.9%
B13	96.3%
B14	91.7%
B15	100%
B16	97%
B17	102%
B18	97.8%
B19	103%
B20	102%
B21	91.7%
B22	93.1%
B23	100%
B24	99.7%
B25	99.3%
B26	94.4%
B27	97.7%
B28	97.3%

The binders below were run against T5, FcγRIa extracellular domain with C-terminal His tag (human, UniProt P12314 16-292) (assay: SPR; % of GpH7-A5/GpH7-B3/GpL16-k0).
T5 construct: extracellular domain; also called 1a; CD64
T5 sequence (P12314 other isoform, or with tags, fused parts or gaps): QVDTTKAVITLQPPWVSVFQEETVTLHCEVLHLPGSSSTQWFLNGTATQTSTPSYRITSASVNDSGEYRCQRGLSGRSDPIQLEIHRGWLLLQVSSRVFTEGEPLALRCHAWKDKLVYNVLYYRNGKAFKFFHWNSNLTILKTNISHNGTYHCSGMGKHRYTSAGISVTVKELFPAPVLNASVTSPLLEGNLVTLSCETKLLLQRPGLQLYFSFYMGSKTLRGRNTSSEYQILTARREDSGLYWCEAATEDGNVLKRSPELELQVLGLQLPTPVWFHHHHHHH

Binder	He/Con 1a
B1	107%
B2	103%
B3	102%
B4	103%
B5	103%
B6	104%
B7	102%
B8	103%
B9	103%
B10	102%
B11	108%
B12	107%
B13	108%
B14	108%
B15	110%
B16	110%
B17	113%
B18	118%
B19	111%
B20	112%
B21	114%
B22	116%
B23	108%
B24	111%
B25	109%
B26	109%
B27	108%
B28	110%

Each binder was assayed against T1, FcγRIIa(R) extracellular domain with … (assay: SPR; % of GpH7-A5/GpH7-B3/GpL16-k0).

Binder	He/Con 2aR
B1	109%
B2	101%
B3	107%
B4	108%
B5	106%
B6	107%
B7	117%
B8	114%
B9	109%
B10	108%
B11	110%
B12	108%
B13	112%
B14	113%
B15	109%
B16	110%
B17	115%
B18	114%
B19	116%
B20	117%
B21	105%
B22	106%
B23	116%
B24	117%
B25	114%
B26	112%
B27	112%
B28	115%

These binders were tested against T2, FcγRIIa(H) extracellular domain with … (assay: SPR; % of GpH7-A5/GpH7-B3/GpL16-k0).

Binder	He/Con 2aH
B1	85.8%
B2	98.7%
B3	103%
B4	104%
B5	105%
B6	104%
B7	114%
B8	109%
B9	105%
B10	106%
B11	107%
B12	104%
B13	107%
B14	107%
B15	112%
B16	106%
B17	112%
B18	109%
B19	111%
B20	112%
B21	103%
B22	103%
B23	110%
B24	110%
B25	109%
B26	107%
B27	107%
B28	109%

What follows are binders tested against T3, FcγRIIb extracellular domain with … (assay: SPR; % of GpH7-A5/GpH7-B3/GpL16-k0).

Binder	He/Con 2b
B1	123%
B2	100%
B3	106%
B4	108%
B5	107%
B6	106%
B7	124%
B8	117%
B9	108%
B10	113%
B11	106%
B12	103%
B13	109%
B14	112%
B15	109%
B16	109%
B17	116%
B18	114%
B19	118%
B20	118%
B21	99.4%
B22	100%
B23	111%
B24	118%
B25	112%
B26	111%
B27	109%
B28	114%
